In US20260184748A1 (University of Pennsylvania, published 2026):
Where no end group is shown, it is not given here.

Tests used:
Test in all cases: cell-based or functional assay
[1] = target: MC3R (UniProt P41968 1-323)
[2] = target: MC5R (UniProt P33032 1-325)
[3] = target: PTGER4 (UniProt P35408 1-488)
[4] = target: SSTR2 (UniProt P30874 1-369)
[5] = target: T1, TRHR (UniProt P34981 1-398)
T1 sequence (looked up): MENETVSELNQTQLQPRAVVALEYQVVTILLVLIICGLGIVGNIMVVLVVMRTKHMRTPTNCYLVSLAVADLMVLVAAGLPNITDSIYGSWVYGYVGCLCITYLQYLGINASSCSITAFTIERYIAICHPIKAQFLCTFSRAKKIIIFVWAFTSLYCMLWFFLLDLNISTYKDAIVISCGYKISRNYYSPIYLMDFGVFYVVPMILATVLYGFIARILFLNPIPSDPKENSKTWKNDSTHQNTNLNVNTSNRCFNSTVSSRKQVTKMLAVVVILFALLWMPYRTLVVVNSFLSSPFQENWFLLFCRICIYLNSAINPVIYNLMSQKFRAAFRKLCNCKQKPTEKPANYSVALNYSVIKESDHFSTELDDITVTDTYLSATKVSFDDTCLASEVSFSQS

[6] = target: TSHR(L) (UniProt P16473 21-764, limits assumed)
[7] = target: C5L2 (UniProt Q9P296 1-337)
C5L2, sequence (Q9P296 whole entry): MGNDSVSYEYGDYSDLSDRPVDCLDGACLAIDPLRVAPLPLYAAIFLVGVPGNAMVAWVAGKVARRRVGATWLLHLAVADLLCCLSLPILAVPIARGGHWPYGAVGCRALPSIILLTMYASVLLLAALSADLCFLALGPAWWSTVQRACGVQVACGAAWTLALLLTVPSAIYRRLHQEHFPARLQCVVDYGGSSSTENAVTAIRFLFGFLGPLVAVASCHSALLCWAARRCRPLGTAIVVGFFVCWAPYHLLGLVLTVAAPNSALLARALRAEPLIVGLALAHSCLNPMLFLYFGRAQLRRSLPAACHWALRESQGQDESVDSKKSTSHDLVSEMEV

[8] = target: T2, CALCR (UniProt P30988 25-474, limits assumed)
T2 sequence (looked up): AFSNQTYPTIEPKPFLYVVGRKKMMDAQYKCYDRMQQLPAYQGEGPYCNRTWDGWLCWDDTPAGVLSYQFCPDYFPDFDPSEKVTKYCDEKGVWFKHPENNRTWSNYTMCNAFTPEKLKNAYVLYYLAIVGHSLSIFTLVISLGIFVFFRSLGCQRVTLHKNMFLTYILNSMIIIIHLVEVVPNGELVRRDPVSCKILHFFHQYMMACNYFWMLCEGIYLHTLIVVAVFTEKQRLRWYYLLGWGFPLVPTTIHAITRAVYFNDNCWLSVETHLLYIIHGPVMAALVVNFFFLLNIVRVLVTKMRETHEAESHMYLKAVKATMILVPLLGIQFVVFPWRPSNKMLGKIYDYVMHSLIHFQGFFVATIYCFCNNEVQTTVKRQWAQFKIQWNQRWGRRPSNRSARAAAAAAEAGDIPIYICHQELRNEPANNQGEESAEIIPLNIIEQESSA

[9] = target: T3, CCR1 (UniProt P32246 1-355)
T3 sequence (looked up): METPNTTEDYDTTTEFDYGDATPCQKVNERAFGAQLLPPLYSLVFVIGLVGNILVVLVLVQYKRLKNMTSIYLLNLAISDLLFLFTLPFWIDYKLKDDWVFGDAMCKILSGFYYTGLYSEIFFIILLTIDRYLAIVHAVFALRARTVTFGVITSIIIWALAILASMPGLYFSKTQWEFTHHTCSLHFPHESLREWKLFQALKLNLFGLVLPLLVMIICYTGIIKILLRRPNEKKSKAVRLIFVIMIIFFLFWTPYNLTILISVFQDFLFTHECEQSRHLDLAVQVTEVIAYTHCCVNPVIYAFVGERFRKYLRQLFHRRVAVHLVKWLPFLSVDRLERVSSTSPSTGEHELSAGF

[10] = target: CCR5 (UniProt P51681 1-352)
CCR5, sequence (P51681 whole entry): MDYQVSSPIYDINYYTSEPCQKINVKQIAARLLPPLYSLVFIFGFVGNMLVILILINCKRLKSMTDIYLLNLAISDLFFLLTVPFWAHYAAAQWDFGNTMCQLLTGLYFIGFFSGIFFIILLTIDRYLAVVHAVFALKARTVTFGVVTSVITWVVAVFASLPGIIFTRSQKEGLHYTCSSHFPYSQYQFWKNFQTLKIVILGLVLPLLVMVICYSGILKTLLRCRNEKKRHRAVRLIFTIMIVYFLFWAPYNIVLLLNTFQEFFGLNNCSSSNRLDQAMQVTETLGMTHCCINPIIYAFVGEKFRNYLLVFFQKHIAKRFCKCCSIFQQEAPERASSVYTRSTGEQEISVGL

[11] = target: T4, CHRM2 (UniProt P08172 1-466)
T4 sequence (looked up): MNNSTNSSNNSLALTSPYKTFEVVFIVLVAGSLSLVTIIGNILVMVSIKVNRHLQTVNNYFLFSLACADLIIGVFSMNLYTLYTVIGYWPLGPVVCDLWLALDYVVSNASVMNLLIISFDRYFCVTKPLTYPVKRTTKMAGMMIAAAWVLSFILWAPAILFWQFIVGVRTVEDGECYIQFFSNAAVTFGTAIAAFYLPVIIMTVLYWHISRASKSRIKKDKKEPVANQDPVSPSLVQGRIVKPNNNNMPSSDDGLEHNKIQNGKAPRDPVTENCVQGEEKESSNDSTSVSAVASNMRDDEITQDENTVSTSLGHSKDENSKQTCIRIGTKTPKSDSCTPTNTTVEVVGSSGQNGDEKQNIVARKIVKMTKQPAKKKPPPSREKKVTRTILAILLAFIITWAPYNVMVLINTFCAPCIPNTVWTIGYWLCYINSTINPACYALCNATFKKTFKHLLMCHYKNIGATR

[12] = target: T5, CXCR2 (UniProt P25025 1-360)
T5 sequence (looked up): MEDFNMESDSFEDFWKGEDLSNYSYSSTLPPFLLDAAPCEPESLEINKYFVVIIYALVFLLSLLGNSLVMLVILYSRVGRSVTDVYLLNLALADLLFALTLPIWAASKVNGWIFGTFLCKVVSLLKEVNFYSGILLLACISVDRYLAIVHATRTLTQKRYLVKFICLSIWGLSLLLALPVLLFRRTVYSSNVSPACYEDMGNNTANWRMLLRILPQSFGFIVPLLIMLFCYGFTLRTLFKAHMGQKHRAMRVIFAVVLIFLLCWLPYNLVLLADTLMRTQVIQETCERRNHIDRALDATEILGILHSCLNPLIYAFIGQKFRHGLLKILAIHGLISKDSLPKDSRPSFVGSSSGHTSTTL

[13] = target: T6, DRD4 (UniProt P21917 1-419, limits assumed)
T6 sequence (looked up): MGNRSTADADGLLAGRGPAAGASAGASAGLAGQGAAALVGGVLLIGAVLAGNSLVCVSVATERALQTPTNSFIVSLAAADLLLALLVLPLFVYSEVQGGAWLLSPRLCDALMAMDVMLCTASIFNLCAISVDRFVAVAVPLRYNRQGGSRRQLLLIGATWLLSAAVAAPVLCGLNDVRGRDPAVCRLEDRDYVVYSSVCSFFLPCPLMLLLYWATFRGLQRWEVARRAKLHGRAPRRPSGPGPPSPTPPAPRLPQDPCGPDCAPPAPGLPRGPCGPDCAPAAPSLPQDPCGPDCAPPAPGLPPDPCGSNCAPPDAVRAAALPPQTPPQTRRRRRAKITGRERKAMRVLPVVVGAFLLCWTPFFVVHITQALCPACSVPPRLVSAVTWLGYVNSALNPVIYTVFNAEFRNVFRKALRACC

MC3R, sequence (P41968 whole entry): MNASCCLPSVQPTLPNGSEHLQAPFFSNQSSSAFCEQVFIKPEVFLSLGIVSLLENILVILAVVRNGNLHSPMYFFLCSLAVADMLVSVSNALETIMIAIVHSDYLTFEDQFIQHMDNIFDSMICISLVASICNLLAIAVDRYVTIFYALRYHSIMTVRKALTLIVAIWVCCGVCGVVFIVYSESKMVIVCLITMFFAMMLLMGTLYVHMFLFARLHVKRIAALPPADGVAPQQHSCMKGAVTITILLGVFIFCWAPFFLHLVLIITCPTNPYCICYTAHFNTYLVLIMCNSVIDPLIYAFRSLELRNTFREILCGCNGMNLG
MC5R, sequence (P33032 whole entry): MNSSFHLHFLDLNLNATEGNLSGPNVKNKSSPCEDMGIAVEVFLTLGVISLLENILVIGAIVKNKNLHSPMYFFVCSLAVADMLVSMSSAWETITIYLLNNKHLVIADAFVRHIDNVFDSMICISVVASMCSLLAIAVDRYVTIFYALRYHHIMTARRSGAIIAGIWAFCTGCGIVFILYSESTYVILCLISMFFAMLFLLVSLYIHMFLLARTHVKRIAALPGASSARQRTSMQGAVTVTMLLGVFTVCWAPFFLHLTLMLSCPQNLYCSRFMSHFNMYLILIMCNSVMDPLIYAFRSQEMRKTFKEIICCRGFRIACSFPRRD
SSTR2, sequence (P30874 whole entry): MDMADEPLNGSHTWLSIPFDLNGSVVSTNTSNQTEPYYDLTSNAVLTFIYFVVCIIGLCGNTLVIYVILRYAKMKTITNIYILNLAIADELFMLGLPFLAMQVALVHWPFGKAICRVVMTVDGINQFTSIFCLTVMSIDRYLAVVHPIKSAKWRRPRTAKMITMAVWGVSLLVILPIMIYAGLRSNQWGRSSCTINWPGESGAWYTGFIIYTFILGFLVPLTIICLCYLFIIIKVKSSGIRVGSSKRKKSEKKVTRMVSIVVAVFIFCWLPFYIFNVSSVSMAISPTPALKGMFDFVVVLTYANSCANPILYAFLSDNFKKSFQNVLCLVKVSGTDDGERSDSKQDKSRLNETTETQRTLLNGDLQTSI
PTGER4, sequence (P35408 whole entry): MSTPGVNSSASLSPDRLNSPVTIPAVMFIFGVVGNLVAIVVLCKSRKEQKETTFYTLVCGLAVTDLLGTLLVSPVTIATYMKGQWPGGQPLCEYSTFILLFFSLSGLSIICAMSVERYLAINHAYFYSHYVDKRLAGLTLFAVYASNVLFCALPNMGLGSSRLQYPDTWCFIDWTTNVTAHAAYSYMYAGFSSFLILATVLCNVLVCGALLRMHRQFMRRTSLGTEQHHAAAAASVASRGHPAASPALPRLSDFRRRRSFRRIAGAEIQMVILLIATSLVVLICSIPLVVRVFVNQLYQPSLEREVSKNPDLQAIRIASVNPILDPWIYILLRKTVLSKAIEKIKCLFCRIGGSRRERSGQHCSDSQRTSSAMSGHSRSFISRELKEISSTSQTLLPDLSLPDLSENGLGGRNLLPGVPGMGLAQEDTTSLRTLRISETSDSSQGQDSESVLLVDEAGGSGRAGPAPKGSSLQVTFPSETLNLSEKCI

B1: octadecaneuropeptide (ODN) (peptide)
peptide: QATVGDVNTDRPGLLDLK
modifications: also: synthesised on Rink amide resin, C-terminal amide not given here outright
- % Activity, arrestin, antagonist mode, 2.5 uM [1]: -2.1%
- % Activity, arrestin, antagonist mode, 2.5 uM [2]: 5.9%
- % Activity, arrestin, antagonist mode, 2.5 uM [3]: -15.1%
- % Activity, arrestin, antagonist mode, 2.5 uM [4]: -20.5%
- % Activity, arrestin, antagonist mode, 2.5 uM [5]: -6.6%
- % Activity, arrestin, antagonist mode, 2.5 uM [6]: -19.1%
- % Activity, arrestin, antagonist mode, 2.5 uM [7]: 3.5%
- % Activity, arrestin, antagonist mode, 2.5 uM [8]: -22.3%
- % Activity, arrestin, antagonist mode, 2.5 uM [9]: -5.4%
- % Activity, arrestin, antagonist mode, 2.5 uM [10]: -16.1%
- % Activity, arrestin, antagonist mode, 2.5 uM [11]: 3.3%
- % Activity, arrestin, antagonist mode, 2.5 uM [12]: -9.8%
- % Activity, arrestin, antagonist mode, 2.5 uM [13]: 2.5%
